In this experiment the target is T1, ERK3, amino acids 1-316, bait fused to the Gal4 DNA binding domain (Saccharomyces cerevisiae, UniProt P04386 1-147; Q16659 1-316).
T1 construct: range 1-147;range 1-316; Bait cDNA made by PCR from brain cDNA; also called ERK3 protein kinase
Briefly: yeast two-hybrid. An excerpt: The new construct was selected directly in the yeast J693 for its ability to drive tryptophane synthesis (genotype of this strain: Mat α, ade2, his3, leu2, trp1, URA3::GAL1-lacZ LYS2::GAL1-HIS3 gal4del gal80del cyhR2). In these yeast cells, the bait is produced as a C-terminal fusion protein with the DNA binding domain of the transcription factor Gal4 (amino acids 1 to 147). A total human brain (person) cDNA library cloned into the yeast expression vector pACT2 was purchased from Clontech (human brain […] cDNA, cat. # HL4004AH), transformed into the yeast strain J692 (genotype of this strain: Mat a, ade2, his3, leu2, trp1, URA3::GAL1-lacZ LYS2::GAL1-HIS3 gal4del ga80del cyhR2), and selected for the ability to drive leucine synthesis. In these yeast cells, each cDNA is expressed as a fusion protein with the transcription activation domain of the transcription factor Gal4 (amino acids 768 to 881) and a 9 amino acid hemagglutinin epitope tag. J693 cells (Mat α type) expressing the bait were then mated with J692 cells ([…]) expressing proteins from the brain library. The resulting diploid yeast cells expressing proteins interacting with the bait protein were selected for the ability to synthesize tryptophan, leucine, histidine, and β-galactosidase. […]

B1: CDK9, amino acids 160-372, prey clone fused to the Gal4 activation domain (other, Saccharomyces cerevisiae;human, UniProt P04386 768-881, looked up, not shown: small tags and cut ends)
chain: ANFNQSGNIADSSLSFTFTNSSNGPNLITTQTNSQALSQPIASSNVHDNFMNNEITASKIDDGNNSKPLSPGWTDQTAYNAFGITTGMFNTTTMDDVYNYLFDDEDTPPNPKKEDGVLKLADFGLARAFSLAKNSQPNRYTNRVVTLWYRPPELLLGERDYGPPIDLWGAGCIMAEMWTRSPIMQGNTEQHQLALISQLCGSITPEVWPNVDNYELYEKLELVKGQKRKVKDRLKAYVRDPYALDLIDKLLVLDPAQRIDSDDALNHDFFWSDPMPSDLKGMLSTHLTSMFEYLAPPRRKGSQITQQSTNQSRNPATTNQTEFERVF
notes: Clone from the human brain cDNA library; also called PITARLE
For B1, the binding result is listed as “binds”.

These data come from patent publication US20020104105A1 (MYRIAD GENETICS, published 2002).
